Bridge positions count the residues as written; N and C are the ends. Square brackets hold non-standard residues; d marks the D form. Peptide text beside a SMILES is read from it. * marks the point of attachment. X1 = O=C(O)CN1CCN(CC(=O)O)CCN(C(CCC(=O)NCCNC(=O)CCOCCOCCOCCOCCOCCC(=O)NCCSc2c(F)c(F)c(-c3c(F)c(F)c(*)c(F)c3F)c(F)c2F)C(=O)O)CC1
Legend:
[1] = physchem; settings: pH 7.4
[2] = in vivo; settings: mouse
Experimental: (§1) Stability of [18F]AlF-4: [18F]AlF-4 (3-5 MBq) was incubated at 37 °C in RPMI media (500 µL). Aliquots of the
(§2) solutions were sampled at 1, 2, 3, 4 and 5 h and diluted in H 2O for C18 RP-HPLC analysis. The diluted solutions
(§3) were centrifuged at 13,000 g for 5 min prior to analysis.
(§4) Stability of [68Ga]Ga-5: A sample of [68Ga]Ga-5 was added to serum (with or without 5 mM reduced glutathione),
(§5) in a ratio of one part radiolabelled solution to four parts of serum by volume and incubated at 37 °C. Aliquots
(§6) were taken for SE-HPLC analysis at t = 1 h, 2 h, 3 h, 4 h and 5 h.
(§7) Cell culture: The rat cancer cell line AR42J (cultured in RPMI -1640) was purchased from American Type Culture
(§8) Collection. Growth media were supplemented with 10 % foetal bovine serum (FBS), 100 units/mL penicillin , 100
(§9) µg/mL streptomycin, and 2 mM ʟ-glutamine. Cell lines were harvested twice weekly using a formulation of 0.25
(§10) % trypsin/0.53 mM EDTA in Phosphate Buffered Salt (PBS) Solution without calcium and magnesium, which was
then neutralised with the appropriate medium containing FBS. […]
(§11) by PBS wash (500 μL x 1). The radioactivity associated with each fraction were then counted using a gamma […]
isotropic voxel size. Images were co-registered and analysed using VivoQuant v.3.0 (Invicro). […]
(ROIs) were delineated for PET activity quantification in specific organs. Uptake in each ROI was expressed as a […]

[3] = assay type: in vitro ADME, human
Experimental: as §1, §2, §3, §4, §5, §6, §7, §8, §9, §10
then neutralised with the appropriate medium containing FBS. Cells were maintaine d in a humidified chamber
containing 5 % CO2 at 37 °C.
SSTR2 in vitro binding studies: [68Ga]Ga-5 was prepared as per above. The radioconjugate was then diluted with […]
as §11

[4] = in vivo; settings: BALB/c, mouse, iv, total radioactivity, Ex vivo biodistribution
Experimental: page 9: mice under 0.8-1.5% isoflurane in oxygen anaesthesia and warmed to 37 °C for the duration of the experiment. Mice were administered [68Ga]Ga-5 (∼2-3 μg, ∼0.8-1.5 MBq) in 200 μL of PBS via intravenous tail injection. Dynamic PET scans were acquired for up to 1 h post injection, followed by a CT scan for anatomical visualisation (480 projections; helical acquisition; 55 kVp; 600 ms exposure time). PET/CT datasets were reconstructed using a Monte Carlo-based full-3D iterative algorithm (TeraTomo, Mediso) with 4 iterations, 6 subsets, and 0.4 mm isotropic voxel size. Images were co-registered and analysed using VivoQuant v.3.0 (Invicro). Regions of interest (ROIs) were delineated for PET activity quantification in specific organs. Uptake in each ROI was expressed as a percentage of injected dose per gram of tissue (% ID/g). Biodistribution studies: Following PET/CT imaging study, mice (n=4/group, one mouse from each group was not subjected to PET/CT imaging) were culled by cervical dislocation, organs were dissected, weighed, and gamma- counted along with standards prepared from the corresponding sample of injected radiolabelled conjugates. Conjugate uptake was calculated as a percentage of injected dose per gram (% ID/g) of tissue.

C[C@@H](O)[C@H](NC(=O)[C@@H]1CSSC[C@H](NC(=O)[C@@H](Cc2ccccc2)NC(=O)[C@H](Cc2ccccc2)NC(=O)[C@@H]2CCCN2C(=O)[C@H](CSc2c(F)c(F)c(-c3c(F)c(F)c(SCCNC(=O)CCOCCOCCOCCOCCOCCC(=O)NCCNC(=O)CCC(C(=O)O)N4CCN(CC(=O)O)CCN(CC(=O)O)CC4)c(F)c3F)c(F)c2F)NC(=O)[C@@H](N)Cc2ccccc2)C(=O)N[C@@H](Cc2ccc(O)cc2)C(=O)N[C@H](Cc2c[nH]c3ccccc23)C(=O)N[C@@H](CCCCN)C(=O)N[C@@H]([C@@H](C)O)C(=O)N1)C(=O)O (stereo partly shown) [[68Ga]Ga-5, [^68Ga]Ga-NODAGA-FCPF-TATE, metal not drawn] (H-FC(X1)PF[dF]CY[dW]KTCT-OH; disulfide 6-11)
logD [1]: -0.4 ± 0.03
tissue uptake at 1 h ([2]; female, BALB/c, iv, total radioactivity, PET 68Ga radioactivity remaining in circulation): 13.8 ± 1.61 %ID/g
route of clearance from the blood pool [2]: predominantly hepatically
dissociation of the radiotracer in human serum [3]: 2%
tissue uptake at 1 h ([4]; Bone): 0.95 %ID/g
tissue uptake at 1 h ([4]; Brain): 1.29 %ID/g
tissue uptake at 1 h ([4]; Pituitary gland): 6.04 %ID/g
tissue uptake at 1 h ([4]; female, Adrenal glands): 6.45 %ID/g
tissue uptake at 1 h ([4]; female, Blood): 27.2 %ID/g
tissue uptake at 1 h ([4]; female, Heart): 7.89 %ID/g
tissue uptake at 1 h ([4]; female, Kidneys): 9.57 %ID/g
tissue uptake at 1 h ([4]; female, Liver): 54.6 %ID/g
tissue uptake at 1 h ([4]; female, Lower GI): 2.76 %ID/g
tissue uptake at 1 h ([4]; female, Lungs): 10.6 %ID/g
tissue uptake at 1 h ([4]; female, Muscle): 0.69 %ID/g
tissue uptake at 1 h ([4]; female, Pancreas): 3.49 %ID/g
tissue uptake at 1 h ([4]; female, Spleen): 20.8 %ID/g
tissue uptake at 1 h ([4]; female, Stomach): 2.17 %ID/g
tissue uptake at 1 h ([4]; female, Upper GI): 5.64 %ID/g

— article PMC11633826, “Site-specific π-clamp-mediated radiosynthesis of ^68Ga and ^18F PET radiopharmaceuticals” (Chemical Communications (Cambridge, England), 2024)
